Test results: paper PMC11577422
Like-named read-outs stand apart in the source and are kept apart here.

Substrate: Cc1ccco1
Type: in vitro ADME, human

B1: CYP 2E1 (Homo sapiens) (protein)
chain: MSALGVTVALLVWAAFLLLVSMWRQVHSSWNLPPGPFPLPIIGNLFQLELKNIPKSFTRLAQRFGPVFTLYVGSQRMVVMHGYKAVKEALLDYKDEFSGRGDLPAFHAHRDRGIIFNNGPTWKDIRRFSLTTLRNYGMGKQGNESRIQREAHFLLEALRKTQGQPFDPTFLIGCAPCNVIADILFRKHFDYNDEKFLRLMYLFNENFHLLSTPWLQLYNNFPSFLHYLPGSHRKVIKNVAEVKEYVSERVKEHHQSLDPNCPRDLTDCLLVEMEKEKHSAERLYTMDGITVTVADLFFAGTETTSTTLRYGLLILMKYPEIEEKLHEEIDRVIGPSRIPAIKDRQEMPYMDAVVHEIQRFITLVPSNLPHEATRDTIFRGYLIPKGTVVVPTLDSVLYDNQEFPDPEKFKPEHFLNENGKFKYSDYFKPFSTGKRVCAGEGLARMELFLLLCAILQHFNLKPLVDPKDIDLSPIHIGFGCIPPRYKLCVIPRS
Question: B1 was tested. Which Km (other: CYP 2E1; I) high substrate concentrations) did it give?
Answer: I) 1966.76; II) 23.29 μM

Question: What about the Km (other: CYP 2E1; II) low substrate concentrations) of the same protein?
Answer: 23.3 µM
